{"source": "patent US20120172298A1", "about": "“GLP-1 AND FGF21 COMBINATIONS FOR TREATMENT OF DIABETES TYPE 2” (Novo Nordisk A/S, priority 2009, published 2012)", "molecules": {"B1": {"name": "Met-FGF21_human (protein, listed as Homo sapiens)", "chain": "HPIPDSSPLLQFGGQVRQRYLYTDDAQQTEAHLEIREDGTVGGAADQSPESLLQLKALKPGVIQILGVKTSRFLCQRPDGALYGSLHFDPEACSFRELLLEDGYNVYQSEAHGLPLHLPGNKSPHRDPAPRGPARFLPLPGLPPALPEPPGILAPQPPDVGSSDPLSMVGPSQGRSPSYAS", "modifications": "N-terminal Met; mat_peptide (1)..(181); DISULFID (75)..(93)"}}, "test_system": "pancreatic islets from diabetic db/db mice", "assay": "Restoration of glucose stimulated insulin release ex vivo (islet perifusion)", "type": "cell-based", "set-up": "AUC for time 35-75 minutes (glucose response), single repetitions / AUC for time 75-140 minutes (forskolin response), single repetitions: unit not given here", "settings": "for insulin release: mean +/- SEM", "experimental": "This ex vivo example investigates the ability of pancreatic islets from diabetic db/db mice to restore, in response to treatment with FGF21 and GLP-1 compounds, the ability to release insulin in response to glucose stimulation.\nIslets from 25 db/db mice (Charles River), 15 weeks of age, were isolated according to the following procedure:\nAnimals were killed by cervical dislocation and fixated with pins on a Styrofoam plate. Pancreata were removed and transferred to a Packard vial containing 5 ml collagenase (Life Science, grade II, cat. no. 100502) 300 units/ml (one pancreas/vial) which was kept on ice until all pancreata were removed. Then the pancreata were shaken in the Grant/Edmund S25 thermoshaker at 200 strokes/min. at 37° C. for 5 min. The tissue was transferred to a fresh vial containing 5 ml 150 units/ml collagenase (supernatant was discarded) and shaken again in the thermoshaker for 5 min. The tissue was further shaken 3-5 min. on the thermoshaker, and thereafter all shaking is done by hand for 5-10 sec. each time. These steps were repeated until all tissue was digested. The process was followed continuously under the stereomicroscope and once digested the tissue was pooled and collected in progressively fewer tubes. All supernatants were washed 3 times in HBSS+0.5% NCS (HBSS (10×) from Gibco, cat. no. 14060, is diluted 10× in H2O before use, Newborn Calf Serum (NCS) from Gibco, cat. no. 26010-066), allowed to sediment for 5 min. between each wash, and left on ice, following which the islets were ready for picking. Islets were purified by transferring a little bit of supernatant to a Petri dish, filling up with HBSS+NCS and subsequently transferring (by mouth pipetting) with a constriction pipette to a new Petri dish. From there the islet were re-picked until pure, and then incubated in RPMI 1640 medium (Gibco, cat no 61870-010)+10% NCS at 37° C.\nAfter incubation, the islets were washed in Krebs Ringer solution (115 mM NaCl, 4.7 mM KCl, 2.6 mM CaCl2, 1.2 mM KH2PO4, 1.2 mM MgSO4, 10 mM HEPES, 0.2% BSA, 2 mM glutamine, 5 mM NaHCO3, pH 7.4) and subsequently used in an islet perifusion experiment (Suprafusion 2500 from Brandel). For each of the three preincubation conditions four perifusion columns each with 60 islets were used. The islets were placed in Bio-gel P2 (Bio-Rad. cat. no. 150-4114) in the columns with a nylon mesh below and above the gel. The islets were initially perifused for 40 minutes with Krebs Ringer solution containing 3 mM glucose to obtain a stable baseline of insulin release. After 40 minutes the buffer was exchanged to 15 mM glucose for 30 minutes (time 40-70 min). Then the buffer was exchanged to 15 mM glucose containing 10 μM forskolin (Tocris 1099, batch 3A/86008) for 40 minutes (time 70-110 min). Finally the buffer was exchanged to low glucose (3 mM) for 30 minutes (time 110-140 min). The buffer was set to flow through the perifusion system at a rate of 0.3 ml/minute. Samples were taken every 5 minutes from time 30 to 140 min. Samples were stored at −20° C. and subsequently analysed for insulin, essentially as described by Poulsen et al. in Journal of Biomolecular Screening 12(X); p. 1-8, 2007 (LOCI (Luminescent Oxygen Channeling Immunoassay) sandwich immunoassay).\nThe results (ng/ml insulin) are shown in Table 1 below as mean+/−standard error of mean (SEM). The figures for the control and the FGF21 compound are based on three repetitions (due to problems with one of the four columns in these two experiments), while the figures for the GLP-1 compound are based on four repetitions.\nThe corresponding Area Under the Curve (designated AUC) figures were also calculated, and for the statistics the Student's T-test was used.", "key": {"[1]": {"settings": "insulin AUC per perifusion column, FGF21 = 50 nM Compound F1, GLP-1 = 100 nM Compound G3"}}, "note": "“And” between values parts separate entries of the source, which are not always exact repeats. Identical values can stand only once.", "data": [{"molecule": "B1", "values": [{"measurement": "restoration of glucose stimulated insulin release ex vivo", "setting": "db/db mice pancreatic islets, Table 2 results, F1 50 nM, G3 100 nM", "result": "capable of restoring glucose stimulated insulin release"}, {"measurement": "AUC for time 35-75 minutes (glucose response), single repetitions", "setting": "[1]", "result": "521.2 and 514.5 and 359.9"}, {"measurement": "AUC for time 75-140 minutes (forskolin response), single repetitions", "setting": "[1]", "result": "5402 and 4177 and 5832"}, {"measurement": "AUC for time 75-140 minutes (forskolin response), mean", "setting": "insulin AUC, FGF21 = 50 nM Compound F1, GLP-1 = 100 nM Compound G3, * FGF21 vs GLP-1", "result": "(mean 5137*)"}, {"measurement": "AUC for time 35-75 minutes (glucose response), mean", "setting": "insulin AUC, FGF21 = 50 nM Compound F1, GLP-1 = 100 nM Compound G3, ** vs control", "result": "(mean 465.2**)"}, {"measurement": "insulin release", "setting": "time 35 min, 3 mM glucose, islets preincubated 48 h with 50 nM Compound F1 or 100 nM Compound G3", "result": "0.92 ± 0.10", "unit": "ng/mL"}, {"measurement": "insulin release", "setting": "time 40 min, 3 mM glucose, preincubation 48 h 50 nM F1 or 100 nM G3", "result": "0.71 ± 0.06", "unit": "ng/mL"}, {"measurement": "insulin release", "setting": "time 45 min, 15 mM glucose, preincubation 48 h 50 nM F1 or 100 nM G3", "result": "0.68 ± 0.04", "unit": "ng/mL"}, {"measurement": "insulin release", "setting": "time 50 min, 15 mM glucose, preincubation 48 h 50 nM F1 or 100 nM G3", "result": "19.56 ± 6.74", "unit": "ng/mL"}, {"measurement": "insulin release", "setting": "time 55 min, 15 mM glucose, preincubation 48 h 50 nM F1 or 100 nM G3", "result": "28.33 ± 2.09", "unit": "ng/mL"}, {"measurement": "insulin release", "setting": "time 60 min, 15 mM glucose, preincubation 48 h 50 nM F1 or 100 nM G3", "result": "12.07 ± 0.50", "unit": "ng/mL"}, {"measurement": "insulin release", "setting": "time 65 min, 15 mM glucose, preincubation 48 h 50 nM F1 or 100 nM G3", "result": "11.13 ± 0.66", "unit": "ng/mL"}, {"measurement": "insulin release", "setting": "time 70 min, 15 mM glucose, preincubation 48 h 50 nM F1 or 100 nM G3", "result": "13.37 ± 0.63", "unit": "ng/mL"}, {"measurement": "insulin release", "setting": "time 75 min, 15 mM glucose + 10 μM forskolin, preincubation 48 h 50 nM F1 or 100 nM G3", "result": "13.47 ± 0.78", "unit": "ng/mL"}, {"measurement": "insulin release", "setting": "time 80 min, 15 mM glucose + 10 μM forskolin, preincubation 48 h 50 nM F1 or 100 nM G3", "result": "77.17 ± 14.84", "unit": "ng/mL"}, {"measurement": "insulin release", "setting": "time 85 min, 15 mM glucose + 10 μM forskolin, preincubation 48 h 50 nM F1 or 100 nM G3", "result": "160.00 ± 16.52", "unit": "ng/mL"}, {"measurement": "insulin release", "setting": "time 90 min, 15 mM glucose + 10 μM forskolin, preincubation 48 h 50 nM F1 or 100 nM G3", "result": "154.00 ± 15.00", "unit": "ng/mL"}, {"measurement": "insulin release", "setting": "time 95 min, 15 mM glucose + 10 μM forskolin, preincubation 48 h 50 nM F1 or 100 nM G3", "result": "148.33 ± 17.95", "unit": "ng/mL"}, {"measurement": "insulin release", "setting": "time 100 min, 15 mM glucose + 10 μM forskolin, preincubation 48 h 50 nM F1 or 100 nM G3", "result": "125.00 ± 17.35", "unit": "ng/mL"}, {"measurement": "insulin release", "setting": "time 105 min, 15 mM glucose + 10 μM forskolin, preincubation 48 h 50 nM F1 or 100 nM G3", "result": "99.40 ± 11.84", "unit": "ng/mL"}, {"measurement": "insulin release", "setting": "time 110 min, 15 mM glucose + 10 μM forskolin, preincubation 48 h 50 nM F1 or 100 nM G3", "result": "79.97 ± 8.43", "unit": "ng/mL"}, {"measurement": "insulin release", "setting": "time 115 min, low glucose (3 mM), preincubation 48 h 50 nM F1 or 100 nM G3", "result": "69.63 ± 9.61", "unit": "ng/mL"}, {"measurement": "insulin release", "setting": "time 120 min, low glucose (3 mM), preincubation 48 h 50 nM F1 or 100 nM G3", "result": "56.23 ± 8.37", "unit": "ng/mL"}, {"measurement": "insulin release", "setting": "time 125 min, low glucose (3 mM), preincubation 48 h 50 nM F1 or 100 nM G3", "result": "30.03 ± 6.67", "unit": "ng/mL"}, {"measurement": "insulin release", "setting": "time 130 min, low glucose (3 mM), preincubation 48 h 50 nM F1 or 100 nM G3", "result": "13.16 ± 3.21", "unit": "ng/mL"}, {"measurement": "insulin release", "setting": "time 135 min, low glucose (3 mM), preincubation 48 h 50 nM F1 or 100 nM G3", "result": "5.76 ± 0.70", "unit": "ng/mL"}, {"measurement": "insulin release", "setting": "time 140 min, low glucose (3 mM), preincubation 48 h 50 nM F1 or 100 nM G3", "result": "3.92 ± 0.37", "unit": "ng/mL"}]}]}
